Measurements published in ChEMBL document CHEMBL1250451, “Mechanistic insights into a Ca2+-dependent family of alpha-mannosidases in a human gut symbiont” (Nat Chem Biol, 2010).

How the values were obtained:
Assay type in all cases: protein assay; call rule not given here
[1] = substrate: O=[N+]([O-])c1ccc(O[C@H]2O[C@H](CO)[C@@H](O)[C@H](O)[C@@H]2O)cc1; assay: Ratio of Kcat to Km for Bacteroides thetaiotaomicron GH92 alpha-mannosidase GH92 alpha-mannosidase 3991 assessed as mannose release after 16 hrs by HPLC
[2] = substrate: O=[N+]([O-])c1ccc(O[C@H]2O[C@H](CO)[C@@H](O)[C@H](O)[C@@H]2O)cc1; assay: Activity of Bacteroides thetaiotaomicron GH92 alpha-mannosidase GH92 alpha-mannosidase 3991 assessed as mannose release after 16 hrs by HPLC
[3] = substrate: O=[N+]([O-])c1ccc(O[C@H]2O[C@H](CO)[C@@H](O)[C@H](O)[C@@H]2O)cc1; assay: (§1) Ratio of Kcat to Km for Bacteroides thetaiotaomicron GH92 alpha-mannosidase GH92 alpha-mannosidase 3962 assessed as mannose release after 16 hrs by HPLC
[4] = substrate: OC[C@H]1O[C@H](O[C@H]2[C@@H](O)[C@H](O)[C@@H](CO)O[C@@H]2O)[C@@H](O)[C@@H](O)[C@@H]1O; assay: as §1
[5] = substrate: O=[N+]([O-])c1ccc(O[C@H]2O[C@H](CO)[C@@H](O)[C@H](O)[C@@H]2O)cc1; assay: (§2) Activity of Bacteroides thetaiotaomicron GH92 alpha-mannosidase GH92 alpha-mannosidase 3962 assessed as mannose release after 16 hrs by HPLC
[6] = substrate: OC[C@H]1O[C@H](O[C@H]2[C@@H](O)[C@H](O)[C@@H](CO)O[C@@H]2O)[C@@H](O)[C@@H](O)[C@@H]1O; assay: as §2
[7] = substrate: O=[N+]([O-])c1ccc(O[C@H]2O[C@H](CO)[C@@H](O)[C@H](O)[C@@H]2O)cc1; assay: (§3) Ratio of Kcat to Km for Bacteroides thetaiotaomicron GH92 alpha-mannosidase GH92 alpha-mannosidase 3530 assessed as mannose release after 16 hrs by HPLC
[8] = substrate: OC[C@H]1O[C@H](O[C@H]2[C@H](O)[C@H](O)[C@@H](O)O[C@@H]2CO)[C@@H](O)[C@@H](O)[C@@H]1O; assay: as §3
[9] = substrate: O=[N+]([O-])c1ccc(O[C@H]2O[C@H](CO)[C@@H](O)[C@H](O)[C@@H]2O)cc1; assay: (§4) Activity of Bacteroides thetaiotaomicron GH92 alpha-mannosidase GH92 alpha-mannosidase 3530 assessed as mannose release after 16 hrs by HPLC
[10] = substrate: OC[C@H]1O[C@H](O[C@H]2[C@H](O)[C@H](O)[C@@H](O)O[C@@H]2CO)[C@@H](O)[C@@H](O)[C@@H]1O; assay: as §4

B1: Alpha-1,2-mannosidase (BT_3991) (Bacteroides thetaiotaomicron), Q8A0N0 (protein)
chain: MKLKTLLIGCFGGFIMLNSCTESPSVKDYSAYVNPFIGTGGHGHTFPGAVVPHGMIQPSPDTRIDGWDACSGYYYDDNTINGFSHTHVSGTGCCDYGDVLLMPTVGKPQYLTTDPESQKLAYASAFSHENETAEPGYYSVFLDTYQVKAEITATKRGAIHRYTFPESTESGFIIDLDYSLQRQTNYEMEIEVISDTEICGHKKTTYWAFDQYINFYAKFSKPFAYTLITDSVTMDNGKRLPVCKAVLHFNTKKDEEVLVKVGVSAVDIAGARKNVESEIPEWDFDKVRKDARTAWNNYLSKIDITTSDKEDKTIFYTALYHTAISPNLFTDADGRYLGMDLEVHQGDTINPLYTVFSLWDTFRALHPLMTIIDPNLNNQFINSLIRKHQEGGIYPMWDLASNYTGTMIGYHAVPVIVDAYMKGYRNFDAHEAYKASLRAAEYDTTGIKCPDLVLPHLMPKAKYYKNAIGYIPCDRENESVAKALEYAYDDWCISIFAEAMNDFENKAKYERFAKAYEFYFDKSTRFMRGLDSNGEWRTPFNPRASTHRSDDYCEGTAWQWTWFVPHDVEGLVKLMGGEDAFVEKLDSLFTVDSSLDGETTSADISGLIGQYAHGNEPSHHVIHLYNYVNRPWRTQELVDSVYRSQYANNVDGLSGNEDCGQMSAWYILNSMGFYQVCPGKPVYSIGRPAFDKAVINLPGEKTFSIVAKNNSKSNKYIESVLLNGKPLDTPFFGHQDIVAGGVMEIRMTDHPTQWGVRQ
[1]
  kcat/Km: 0.917 M⁻¹ s⁻¹
[2]
  Km: 2700 µM
  kcat: 0.0025 s⁻¹

B2: Glycoside hydrolase family 92 (BT_3962) (Bacteroides thetaiotaomicron), Q8A0Q9 (protein)
chain: MNKQKLLSITMTLLLGVSSIFAQKQPVDYVNPLMGTDSKISLSNGNTYPAIALPWGMNFWMPQTGKMGDGWAYTYASDKIRGFKQTHQPSPWINDYGQFSIMPMTKQLKIDQDSRASWFSHKAEKATPYYYSVYLSEYNMTTEIAPTERCAYFRFTFPEASDAYVVVDAFDRGSYVKVIPEENKIVGYTTRNSGGVPQNFRNYFVIEFDKPFTFNKVWADYHLVETHLELQSNHVGAAIGFSTKKGEQVHAKVASSFISPEQAELNLKEIGNKTFEQTKEAGRKAWNDVLGRIKVEDDDENRMRTFYSCLYRSVLFPRMFHEVNAKGETVHYSPYNGEIRPGYMFTDTGFWDTFRCLFPFVNLIYPSMGEKMQEGLLNTYLESGFFPEWASPGHRGCMVGNNSASVVADAFMKNVTKADAEKMYEGLLKGANSVHPRVSTTGRRGYEYYNKLGYVPYDVKINENAARTLEYAYDDWCIYRMGEKLGRPAEELELYKSRSQNYRNLFDPETKLMRGKNADGTFQTPFNPFKWGDAFTEGNSWHYTWSVFHDVQGLADLMGGRKMFVSMLDSVFNLPPIFDDSYYGGVIHEIREMEIANMGNYAHGNQPIQHMIYLYNYAGEPWKAQYWLREVMNRLYFATPDGYCGDEDNGQTSAWYVFTALGFYPVCPGSNEYVMGAPYFKKATITLENGKKLEISAPKNSDANRYIRSLNYNGKNYTKNYLNHFDLLKGGRLVFDMDNKPNKGRGINESDFPYSFSRDNK
[3]
  kcat/Km: 56.7 M⁻¹ s⁻¹
[4]
  kcat/Km: 31700 M⁻¹ s⁻¹
[5]
  Km: 5000 µM
  kcat: 0.283 s⁻¹
[6]
  Km: 430 µM
  kcat: 13.7 s⁻¹

B3: Alpha-1,2-mannosidase (BT_3530) (Bacteroides thetaiotaomicron), Q8A1X8 (protein)
chain: MTPSVAQNTKYVNLFIGTSGDNGQVAPGAAAPFGMVCVCPDNDPRSHAGYDYAVTKVSGISVNRLSGVGCSGGGGNLRIRPVAPSQELHIKKSREKATPGYYSTAFTNGIKTELTATNAMAVERYKFPRSLSAALWIDFASTFEDVATCHYKRISETCIEGYVQAKNVCGHGCYKLYFSLNTSQPFQLEEQKETTACLTFGKKVRSVEVRIGLSALSSELASWECARWEKMDFEDVKSRTADQWEKQLSAIDVKGGKKDDRVIFYTSLYRTYLSPADVSSPDGAYLGTDGKVYISEDFRYYSNWSLWDTFRTKFPLLVLTEPAKMRDMATSLIHLYATGKKDWSTGFESTPTVRTEHAVILLLDAYRKGITNLDFRKGYAGMKQEMERLPMRSPDQKMESAYDLWAMAKIAEIIGEKADSEQYRQRSVSLFEETWKKEFMNVTPAFEVMKNNGLYQGTRWQYRWAAPQYIDKMIEWVGQDSLRLQLTYFFDHHLYNQGNEPDIHVPYLFNRLGAPEKTQQIVRSLMTEPMIHKYGGNSEFKTPYLGKAFKNAPEGYSPEMDEDDGTMSAWYVFGAMGFYPLLVGDEYYDLTSPLFDRVLLRLTNGNVLTIQTEGRKKKDAPIKSIHFNGKKIADYRISHNELIKGGELIYNYK
[7]
  kcat/Km: Not Active
[8]
  kcat/Km: 1.58 M⁻¹ s⁻¹
[9]
  Km: Not Active
  kcat: Not Active
[10]
  Km: 610 µM
  kcat: 0.001 s⁻¹
